Data: PMC9101815, “Extracellular Matrix Biomimetic Hydrogels, Encapsulated with Stromal Cell-Derived Factor 1, Improve the Composition of Foetal Tissue Grafts in a Rodent Model of Parkinson’s Disease” (International Journal of Molecular Sciences, 2022)
Ends that are not written are not given here. * marks the point of attachment. Fmoc = O=C(OCC1c2ccccc2-c2ccccc21)*

Molecular target: the molecule itself
Experiment: FTIR + circular dichroism + transmission electron microscopy; peptide alone; gelation by pH switch, 20 mg/mL stock; self-assembly under physiological conditions (pH 7.4) into nanofibrils and a hydrogel

B1: Fmoc-DDIKVAV self-assembling peptide (peptide)
peptide: Fmoc-DDIKVAV
notes: Whole peptide as printed: DDIKVAV with N-terminal Fmoc; Assembles into nanofibres and a hydrogel; also called SAP; IKVAV SAP; source: solid phase peptide synthesis
B1: binds.
